In publication PMC3115060, “Structural Analysis of a Novel Class of R–M Controller Proteins: C.Csp231I from Citrobacter sp. RFL231” (Journal of Molecular Biology, 2011):

Target: the molecule itself
Assay: AUC; sedimentation velocity, 10-80 uM protein, 50 mM Tris-HCl pH 8.0, 100 mM NaCl, 1 mM Na2-EDTA, 20 C, 40,000 rpm, 280 nm; self-association (dimer)

B1: C.Csp231I controller protein (natural protein, Citrobacter sp. RFL231, UniProt Q32WH4 1-98, looked up)
chain: MLIRRLKDARLRAGISQEKLGVLAGIDEASASARMNQYEKGKHAPDFEMANRLAKVLKIPVSYLYTPEDDLAQIILTWNELNEQERKRINFYIRKKAK
notes: C.Csp231I controller protein of the Csp231I restriction-modification system, Citrobacter sp; RFL231; native untagged protein, 98 amino acids (Mr 11,360), expressed from the csp231IC gene; Homodimer in solution and in both crystal forms; also called C-protein; source: E. coli BL21(DE3) Gold, pET-11a, purified (HiTrap heparin, HiTrap SP, Sephacryl S-100 HR)
stoichiometry N: 2
